Assay results published in a protein production outcome set (Wang et al. 2014).

Experiment: label from the status in PepcDB records

Sequence	protein production
MIIFFLLIIIFLITALLFLLIKELHLSTASNYIMTIFLSLIILFIILKPEVCISASISGAKLFFFSVFPYVFPFLIITNLIICYDGIEIYSKLLGPILCLPQRLPKKASIVLMVSFLCGYPLGAKYAADLYENDIISFSTFERLVNIASNPGPLFIIGAVGTSMLKNKYLGYILLISCYLSCIAMGIILPNKKDDFSTKKTKWNVSEKHSIGTALKTSTENAVKVILQVMSFIIIFSVIIGILKQSVIFKNSEASFIKTFILGIVEMTNGSSMLSSSSFPIELKVITISFLSSFGGLCVIAQIYSFIGKYKISYLKFISLKVIQGVISSIICFLLFKFLYVNNTISTFNANNNFLSPSHFFTVAVILAVLPILIYKIKKTI	failed
MTKIACVIVTYNRKQLLEEALNSVLIQTESPEYVFVIDNASTDGTEKYINDKFNFDNRQWHYVRCSQNLGGSAGFAQGMRLALQTDCSWISISDDDAIFEPGYFAALRKGIKQYPEQSVFSGSVLLPDGKHDMMHREVITNSATLTVRCVTDETYKHDFSYDIFSFVGILLSRQVIEAIGLPEQDYFIRFDDFEYAVRALKFGRFMNLSAAKVLHKTTYTRSAIAPWKEYYVMRNRIALLIKHRGNNHTVRWYCRRFLLRKLLAILLFSNRRRQARSLVNAYVKGYQDGWHARLGRQLAFLPS	failed
MANKQVFPTKGNLIATKKSNALAHMGYELMDRKRNILIREMMGLLDDVKLLRDEITQTYAEAYRALQLANMSLGVISAMAEAVPIDTGLHVSYRSVMGVEIPKLSYDKQEIKPTYGLERANSKLDYAYTCFQRVKEMSVVLAEVENNVYRLANAIRKSQKRANALKNIVIPEFEHNIKFITDALEEKEREEFSRQKVIKRNKDSQMQMERK	failed
MKCRGHKNSYFCQDSNEIKSANSNSPLCGDHSFFEMATKQRKGSRSSGRNTSSANTRKGGNFLRRIFITPIRDTFSRDKVGFVFGAILLAIALYTTIAIGSFFVHGGVDQSVVRDAPVSDILLGRAPVANLCGIRGAVWSEWLMNGLFGFGTLFLLFCVFSLSLKLMGVVKRISVVKRLIFCGVMTFWTSLAAAFIYKLSGLEGFLRWGGMHGQEWTLFLERNIGKAGLIIVLLVLAVIIAVVVRSECMGFFRRLLGLSWISIPKLPKKERKNNHDESENESLGNGYDTGESENLSGYLNNSEYEDGPAGESADDPDDYIPPHKEEGENDSSQSIQMGSMTVELAQEEEKADEALLAEIKTDPRMDLASYKFPSVDLLTQYDLQQPPIDMNEIEENQKRIIATLDSFKIHVTPIKATVGPTVTLYEVAPDSGIKISRIRNLEDDIAMSLKAVGGIRIIAPMPGKGTIGIEVPNRKPQTVSMYSVLTSKKYQESDMDLPVALGKTITNEVFIFDLCKMPHLLIAGATGQGKSVGLNAMITSLLYKKHPAELKFVLVDPKMLEFAVYEAIERHYLAKLPDEDRAIVTDMTKVVPTLNSLCIEMDNRYRMLTEARVRNIKEYNDQIISGKLSRLHGHKFLPYIVLIVDEFADLIMTSGKEVERPITRIAQKARAAGIHMVVATQRPSTDIITGIIKANFPARIAFKVFSMIDSRTILDQPGANQLVGRGDMLFYQGKDTVRLQCAFLDTPECEAVTHHISLQESYTSAYELPEYVPEGEEGGPKAFNPQEKDPLFEEVARMVVNSQQGSTSNIQRKFNIGYNRAGRLMDQLEGAGIVSPQDGSKPRQVLIQDEMSLERLFETLR	failed
MTVWRSWRLLGVSGDSKPTDGPVSRFLNRRIASAIASAIIALNLPLTPNMLSLISFLTAAAAALFIAGGQLLVGGLLVQLSSVLDGVDGIVARRLRAASKAGGFLDTMLDRYADTVIYLALAYAAVATHGLETWAVLTAVLAVSGDIMVSYLHTRGERDAGVHPSLVGPLDSLASRDVRLLIVAVITAAGRPLEAMAAVALLSHAYVAVKSIYLFSLLKSKGV	failed
MSNMVEVPIFIAILSFIVMCIGELLAYYSVSLKYKYEFEAISFGFIFGVATLILIPKSYSNMFVLYVILGMITVYLIEKYLAYCPLSKKYCVECDNLEENRIKFIYPISFFIHTFIDGLIIAVSYISEIGLPLYLAILMHKLPAGFVLISPLKGVYKNPLYPGVFVSFGTVLGTIVGLVTLKDVSTKILLAFSGGVFLGAFLMLAPHIYEHKEEKTFLYILLGYILVGIIALH	failed
